Assay results reported in the Human Domainome abundance scans (Beltran et al. 2025).
± gives the uncertainty stated by the source.

B1: Telomeric repeat-binding factor 2, residues 489 to 542; numbered along this chain, Q15554 (parent)
chain: KQKWTVEESEWVKAGVQKYGEGNWAAISKNYPFVNRTAVMIKDRWRTMKRLGMN

Variants of: B1
Assay: abundance fitness (aPCA) (normalised: wild type 0, dead -1); higher = more abundant; growth selection in yeast, the domain comes from the species named
Details: Homo sapiens
Q17I showed an abundance fitness of -0.066 ± 0.15. Q17T showed an abundance fitness of 0.003 ± 0.1. Q17G showed an abundance fitness of -0.108 ± 0.074. V34H gave an abundance fitness of 0.032 ± 0.11. V34N showed an abundance fitness of -0.564 ± 0.22. Variant V34P has an abundance fitness of -0.49 ± 0.092. Variant V34E has an abundance fitness of 0.005 ± 0.044. V34Q gave an abundance fitness of 0.134 ± 0.17. V34T gave an abundance fitness of 0.193 ± 0.12. In the case of F33S, the abundance fitness is reported as -0.972 ± 0.2. Variant F33M has an abundance fitness of -0.652 ± 0.08. With F33L the abundance fitness was -0.65 ± 0.09. Work on F33A yielded an abundance fitness of -0.745 ± 0.061. In the case of W24I, the abundance fitness is reported as -0.291 ± 0.27. Variant W24T has an abundance fitness of -0.705 ± 0.21. W24P gave an abundance fitness of -0.89 ± 0.36. With W24C the abundance fitness was -0.982 ± 0.34. In the case of W24A, the abundance fitness is reported as -0.932 ± 0.49. Variant V12T has an abundance fitness of -0.144 ± 0.15. V12N showed an abundance fitness of -0.844 ± 0.32. R36K showed an abundance fitness of 0.228 ± 0.098. With R36A the abundance fitness was -0.367 ± 0.069. R50S showed an abundance fitness of 0.068 ± 0.056. Work on R50I yielded an abundance fitness of 0.286 ± 0.09. In the case of R50A, the abundance fitness is reported as 0.007 ± 0.052. R50Y gave an abundance fitness of -0.456 ± 0.17. With R50L the abundance fitness was -0.252 ± 0.084. Work on K3E yielded an abundance fitness of -0.175 ± 0.17. K3M gave an abundance fitness of 0.339 ± 0.11. A25N showed an abundance fitness of 0.015 ± 0.13. A25C showed an abundance fitness of -0.091 ± 0.15. Work on A25L yielded an abundance fitness of -0.17 ± 0.065. Work on S28Y yielded an abundance fitness of -0.458 ± 0.3. Variant S28W has an abundance fitness of 0.036 ± 0.095. S28C gave an abundance fitness of -0.17 ± 0.12. In the case of N23M, the abundance fitness is reported as -0.385 ± 0.39. N23D gave an abundance fitness of -0.527 ± 0.26. For Y19P, the abundance fitness was -0.083 ± 0.16. Work on K49E yielded an abundance fitness of -0.235 ± 0.054. Work on K49H yielded an abundance fitness of -0.462 ± 0.23. For K49R, the abundance fitness was -0.358 ± 0.043. Work on K49G yielded an abundance fitness of -0.568 ± 0.073. Variant E8P has an abundance fitness of -0.598 ± 0.12. With P32M the abundance fitness was -0.565 ± 0.04. P32S gave an abundance fitness of -0.361 ± 0.037. E7R gave an abundance fitness of -0.221 ± 0.08. With E7I the abundance fitness was -0.427 ± 0.2. In the case of E7H, the abundance fitness is reported as -0.377 ± 0.28. With E7P the abundance fitness was -0.401 ± 0.055. E7V gave an abundance fitness of -0.459 ± 0.083. For E7C, the abundance fitness was -0.607 ± 0.2. With E21R the abundance fitness was -0.704 ± 0.12. Work on E21A yielded an abundance fitness of -0.314 ± 0.05. Work on E21K yielded an abundance fitness of -0.44 ± 0.075. With E21W the abundance fitness was -0.502 ± 0.083. In the case of N35F, the abundance fitness is reported as -1.14 ± 0.26. N35R gave an abundance fitness of -0.317 ± 0.083. Work on N35Q yielded an abundance fitness of 0.215 ± 0.12. N35H showed an abundance fitness of -0.277 ± 0.35. N35V showed an abundance fitness of -0.643 ± 0.06. W11S showed an abundance fitness of -0.321 ± 0.06. For I41F, the abundance fitness was -0.616 ± 0.096. I41G showed an abundance fitness of -1.06 ± 0.1. With I41C the abundance fitness was -0.692 ± 0.15. I41A showed an abundance fitness of -1.02 ± 0.12. I41N gave an abundance fitness of -0.945 ± 0.15. Work on N30L yielded an abundance fitness of -0.287 ± 0.064. Work on N30A yielded an abundance fitness of -0.042 ± 0.071. T37K gave an abundance fitness of -0.789 ± 0.12. Y31K gave an abundance fitness of -0.535 ± 0.13. In the case of K42E, the abundance fitness is reported as -0.016 ± 0.081. Work on K42P yielded an abundance fitness of -0.961 ± 0.19. K42C showed an abundance fitness of -0.124 ± 0.12. G22D gave an abundance fitness of -0.051 ± 0.072. Work on G22A yielded an abundance fitness of -0.286 ± 0.1. Work on G22Q yielded an abundance fitness of -0.427 ± 0.09. G22L gave an abundance fitness of -0.761 ± 0.14. E10K showed an abundance fitness of -0.314 ± 0.095. In the case of E10Q, the abundance fitness is reported as -0.177 ± 0.13. With K18R the abundance fitness was 0.076 ± 0.067. K18P showed an abundance fitness of -0.686 ± 0.11. Work on T5I yielded an abundance fitness of -0.669 ± 0.31. In the case of T5F, the abundance fitness is reported as -0.826 ± 0.11. T5R showed an abundance fitness of -0.557 ± 0.051. In the case of T5W, the abundance fitness is reported as -0.631 ± 0.26. With V39L the abundance fitness was -0.154 ± 0.055. V39C showed an abundance fitness of 0.203 ± 0.086. In the case of V39A, the abundance fitness is reported as 0.091 ± 0.087. Variant L51I has an abundance fitness of -0.241 ± 0.13. L51H showed an abundance fitness of 0.031 ± 0.4. D43F gave an abundance fitness of -0.68 ± 0.17. Work on D43Y yielded an abundance fitness of -0.364 ± 0.12. D43P showed an abundance fitness of -0.942 ± 0.27. With D43I the abundance fitness was -0.866 ± 0.24. Variant A26L has an abundance fitness of -0.022 ± 0.082. A26S showed an abundance fitness of -0.068 ± 0.053. A26W showed an abundance fitness of -0.545 ± 0.16. In the case of K13R, the abundance fitness is reported as 0.017 ± 0.066. Variant K13D has an abundance fitness of -0.332 ± 0.21. K13F gave an abundance fitness of -0.24 ± 0.22. With K13L the abundance fitness was -0.112 ± 0.087. For K13E, the abundance fitness was -0.25 ± 0.18. Work on A38R yielded an abundance fitness of -0.575 ± 0.075. W4C gave an abundance fitness of -0.599 ± 0.23. With W4V the abundance fitness was -0.61 ± 0.23. W4K showed an abundance fitness of -0.426 ± 0.38. Work on W4F yielded an abundance fitness of -0.023 ± 0.12. With W4M the abundance fitness was -0.27 ± 0.21. For T47M, the abundance fitness was -0.18 ± 0.05. Work on T47E yielded an abundance fitness of 0.177 ± 0.071. T47C gave an abundance fitness of -0.083 ± 0.11. With T47R the abundance fitness was -0.204 ± 0.048.
